Consider 1 molecule from US20220154156A1, “PROTEINS AND METHODS FOR DISRUPTING BACTERIAL COMMUNICATION” (REGENTS OF THE UNIVERSITY OF MINNESOTA, priority 2019, published 2022).

Experiment [1] deals with Clavibacter michiganensis subsp. Nebraskensis. Put plainly: Corn infection assay. The class given is in vivo. The note with it: lactonase spray. As to the method: FIG. 31 show control of plant infections by a single spraying of 1 mL of lactonase solution (10 mg/mL) on corn leaves. The Viking maize seed (40-30UP) were grown in Euro pot (diameter 8 inch) with sterilized soil mixture (50 standard soil/50 Germinating Mix) in a green house under diurnal conditions with 16 hours lights at 22° C. and 8 hours dark at 18° C. Plant leaves were infected with Clabibacter michiganensis subsp. nebraskensis by dipping the clipped leaf into cell suspension ([…]). Shown are duplicates plants for the control treatment (left) and lactonase treatment (right).
Moreover, we specifically established a corn infection assay using the pathogen Clavibacter michiganensis subsp. Nebraskensis.

The test system of experiment [2] is suspension soil microbial community. The experiment can be described thus: Effect of lactonase on suspension soil community. The note with it: 0.5 mg/mL, days 3 and 7. In kind it is cell-based. As to the method: Inoculum were prepared by re-suspending about 5 grams of soil (taken outside GortnerLab building, Saint Paul Campus, Saint Paul, Minn., USA) in 40 mL of water. After a homogenous mixture was achieved, the suspension was lightly centrifuged (5 min, 500×g) and 200 uL of the cloudy supernatant was added to 30 mL of LB media and allowed to grow overnight. This inoculum was used to inoculate 15× diluted LB media (in water) cultures. […] Samples were collected for DNA extraction after 3 and 7 days.
All samples were processed using Mothur v1.35.1. For each sample, 1,250 sequences were used for final analyses. […] Analysis of similarity (ANOSIM) and analysis of molecular variances (AMOVA) were used to evaluate the beta diversity (community composition) among samples using Bray-Curtis dissimilarity matrices (BC) (Bray & Curtis 1957; Clarke 1993). Ordination of Bray-Curtis matrices was performed using principal coordinate analysis (PCoA) to further analyze diversity of sample days throughout the tank (Anderson & Willis 2003). To visualize the distribution of taxonomies and diversities in microbial communities among the samples, R v3.3.1 was used to conduct the normalized relative abundance and OTUs at genus level^45. All of alpha values evaluated at α=0.05.

In experiment [3] the test system is bacterial communities at the surface of the steel. The experiment can be described thus: 16S rDNA analysis of microbial community on steel coupons. The note with it: treated coupons. As for the experimental part:
After photo imaging, on each of the coupon surface, all material including biofilm and tubercles were scraped into a sterile 50 ml polypropylene centrifuge tube (Corning, N.Y., USA) using a steel scraper. A 0.5 g subsample of the surface material from each coupon sample was used for DNA extraction using PowerSoil DNA kit (MoBio Laboratories). The extracted DNA was used to sequence the V4 region of 16S rDNA gene and describe changes in the composition of bacterial communities. DNA samples were quantified with a NanoDrop 2000 Spectrophotometer (Thermo Scientific, Waltham, Mass. USA) and then sent overnight to the University of Minnesota Genomics Center for 16S rDNA sequencing. 30 samples were multiplexed into a single run of Illumina MiSeq paired-end 300 cycles, which was expected to generate a total of 15 million sequences of the 254 bp portions of the 16S rDNA V4 region.
Sequence data were processed and analyzed using the MOTHUR program. To ensure high quality data for analysis, sequence reads containing ambiguous bases, homopolymers >7 bp, more than one mismatch in the primer sequence, or an average per base quality score below 25 were removed. Sequences that only appear once in the total set were assumed to be a result of sequencing error and removed from the analysis. Chimeric sequences were also removed using the UCHIME algorithm within the MOTHUR program. […]

The test system of experiment [4] is Xanthomonas translucens pv. translucens LMG876. Put plainly: Barley leaf infection. In kind it is in vivo. The note with it: single spraying of 1 mL, 10 mg/mL. As for the experimental part: (§1) FIG. 30A-30F show control of plant infections by a single spraying of 1 mL of lactonase solution (10 mg/mL) on plant leaves and crop. (A) and (B) Soft rot potato assay.
(§2) Specifically, we could establish infection systems for corn, wheat, and barley plants, and a crop infection system for potato (tubers and leaves).

The subject of experiment [5] is biofilm of complex soil microbial community. The experiment can be described thus: Biofilm microbial community analysis (16S, MiSeq). The class given is cell-based. As to the method:
DNA extractions were carried out on biofilms. Submerged wells from the strip-well plates were drained of excess cells/water. Biofilm was scraped from the polypropylene well and put into Powerbead® tubes for DNA extraction (MoBio Powersoil® DNA Extraction Kit). Purified DNA samples were submitted to the University of Minnesota's Genomics Center for 16S rRNA sequencing. Using the Genomics Center platform, each sample underwent amplification, indexing, normalization, pooling, size selection, and final QC for sequencing. The V4 region of the 16s rRNA gene was amplified using primer 515f (5′-GTGCCAGCMGCCGCGGTAA-3′ (SEQ ID NO:14)). After the library preparation steps, it was confirmed all samples passed QC and were submitted for sequencing.
All samples were processed using Mothur v1.35.1. For each sample, 1,250 sequences were used for final analyses. […] Analysis of similarity (ANOSIM) and analysis of molecular variances (AMOVA) were used to evaluate the beta diversity (community composition) among samples using Bray-Curtis dissimilarity matrices (BC) (Bray & Curtis 1957; Clarke 1993). Ordination of Bray-Curtis matrices was performed using principal coordinate analysis (PCoA) to further analyze diversity of sample days throughout the tank (Anderson & Willis 2003). […] All of alpha values evaluated at α=0.05.

In experiment [6] the test system is Pectobacterium carotovorum CIR354. Put plainly: Soft rot potato assay. In kind it is in vivo. The note with it: single spraying of 1 mL, 10 mg/mL. As to the method: as §1, §2
Experiment [7] has as its system P. syringae pv. Phaseolicola. Put plainly: Kidney bean plant infection. In kind it is in vivo. The note with it: sprayed, 14 days, multiple inoculations. As to the method: Plants were inoculated twice (day 1 and day 6) with 5×10^6 cells P. syringae pv. Phaseolicola. Left, leaves were sprayed with enzyme buffer after the fist inoculation, for right, leaves were sprayed with buffer containing the QQ lactonase (0.5 mg/mL). Pictures were taken at day 14.
Kidney bean plants were grown and infected with P. syringae pv. Phaseolicola.

Experiment [8] has as its system Xanthomonas translucens pv. undulosa LMG892. Put plainly: Wheat leaf infection. The note with it: single spraying of 1 mL, 10 mg/mL. The class given is in vivo. As for the experimental part: as §1, §2
The subject of experiment [9] is soil bacterial community. Put plainly: Different lactonases on soil microbial community (Example 8). In kind it is cell-based. The note with it: 7 days, vs inactive SsoPox 5A8. As to the method: Principal component analysis (PCA) based on deep bacterial 16S rDNA sequences (Illumina V4 region).
The same experiments as described above were performed on the same soil microbial community but with two different lactonases, GcL, and Ssopox W263I. These enzymes differ primarily by their substrate specificity. […] This is important because different bacteria use different AHLs to communicate. Indeed, The structure of AHLs vary a lot with respect to the length of N-acyl chains (from C4 to C18), the hydroxyl or oxo group of the acyl chain and the saturated or unsaturated state of the carbon chain^1. The hydrophobicity of AHLs relates to their passive diffusion through membranes. […] In fact, regulatory circuits may be interconnected, like in P. aeruginosa^6, and allow for compensatory responses: if the LasI/LasR system is inactivated, the RhlI/RhlR system can still control LasI/LasR-spectific functions^7.

B1: SsoPox W263I: improved variant of the hyperthermostable lactonase SsoPox from Sulfolobus solfataricus, exhibiting higher catalytic rates (protein, UniProt Q97VT7 1-314, looked up, variant W263I)
Aryldialkylphosphatase: MRIPLVGKDSIESKDIGFTLIHEHLRVFSEAVRQQWPHLYNEDEEFRNAVNEVKRAMQFGVKTIVDPTVMGLGRDIRFMEKVVKATGINLVAGTGIYIYIDLPFYFLNRSIDEIADLFIHDIKEGIQGTLNKAGFVKIAADEPGITKDVEKVIRAAAIANKETKVPIITHSNAHNNTGLEQQRILTEEGVDPGKILIGHLGDTDNIDYIKKIADKGSFIGLDRYGLDLFLPVDKRNETTLRLIKDGYSDKIMISHDYCCTIDIGTAKPEYKPKLAPRWSITLIFEDTIPFLKRNGVNEEVIATIFKENPKKFFS
With B1, the “symptoms of infection in corn plants” value in [1] is listed as “protected the plant from showing any symptoms of infection”. Besides, the “composition of suspension community vs inactive variant” value in [2] was “communities are significantly different”. Also, the “abundance of Burkholderiales, Pseudomonadales and Rhodospirillales” value in [3] is on record as “significantly reduced”. The “leaf spots on barley leaves” value in experiment [4] is “Absence of leaf spots”. The “Aeromonas share of the biofilm community” value in experiment [5] (day 7, lactonase 1×) was 79.68%; in experiment [5] (day 7, lactonase 2×) it was 42.16%. Moreover, the “maceration of potato slices” value in experiment [6] is recorded as “less maceration”. Besides, in experiment [7], the “protection of kidney bean plant” value is given as “protected the plant from infection”. Moreover, the “leaf spots on wheat leaves” value in experiment [8] is reported as “Absence of leaf spots”. In addition, the “planktonic microbial community composition” value in [9] is “induce differential planktonic microbial community biases”.
